Experimental data: publication PMC3677924, “Biochemical and Functional Analysis of Drosophila-Sciara Chimeric Sex-Lethal Proteins”

T1: SX35 chimera (Drosophila melanogaster / Sciara …, UniProt P19339 1-123+=R+Q86QM9:73-287, internal_change)
T1 sequence: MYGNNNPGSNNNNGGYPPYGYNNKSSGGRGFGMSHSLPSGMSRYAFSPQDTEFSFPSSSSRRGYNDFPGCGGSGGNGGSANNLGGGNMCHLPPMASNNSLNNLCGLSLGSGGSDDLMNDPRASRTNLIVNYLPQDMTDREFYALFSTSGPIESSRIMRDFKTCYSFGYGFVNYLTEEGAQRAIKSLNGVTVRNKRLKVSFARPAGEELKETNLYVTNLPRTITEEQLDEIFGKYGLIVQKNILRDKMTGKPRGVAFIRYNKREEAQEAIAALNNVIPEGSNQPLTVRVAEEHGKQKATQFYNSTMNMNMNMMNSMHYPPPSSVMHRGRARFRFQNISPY

T2: SX28 chimera (Drosophila melanogaster / Sciara …, UniProt Q86QM9 1-240+=LE+P19339:293-354, internal_change)
T2 sequence: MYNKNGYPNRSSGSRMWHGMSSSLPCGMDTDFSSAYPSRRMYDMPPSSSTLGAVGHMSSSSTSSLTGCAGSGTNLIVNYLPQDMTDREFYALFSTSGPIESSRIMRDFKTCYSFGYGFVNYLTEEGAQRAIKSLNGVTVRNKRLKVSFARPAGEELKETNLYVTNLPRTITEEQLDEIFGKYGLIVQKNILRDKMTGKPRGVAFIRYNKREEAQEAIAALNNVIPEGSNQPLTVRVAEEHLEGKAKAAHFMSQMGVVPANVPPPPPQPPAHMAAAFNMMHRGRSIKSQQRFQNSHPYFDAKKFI

T3: SX17 chimera (Drosophila melanogaster / Sciara …, UniProt Q86QM9 1-71+=R+P19339:125-354, internal_change)
T3 sequence: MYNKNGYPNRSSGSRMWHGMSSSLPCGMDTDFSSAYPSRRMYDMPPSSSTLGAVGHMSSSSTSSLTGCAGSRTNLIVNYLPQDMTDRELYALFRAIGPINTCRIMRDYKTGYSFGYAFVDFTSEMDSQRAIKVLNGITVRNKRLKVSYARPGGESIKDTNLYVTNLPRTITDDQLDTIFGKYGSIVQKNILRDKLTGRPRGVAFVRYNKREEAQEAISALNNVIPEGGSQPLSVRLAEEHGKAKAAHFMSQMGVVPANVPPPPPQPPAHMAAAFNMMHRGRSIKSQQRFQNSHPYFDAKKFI

T4: SX64 chimera (Drosophila melanogaster / Sciara …, UniProt P19339 1-292+=LE+Q86QM9:241-287, internal_change)
T4 sequence: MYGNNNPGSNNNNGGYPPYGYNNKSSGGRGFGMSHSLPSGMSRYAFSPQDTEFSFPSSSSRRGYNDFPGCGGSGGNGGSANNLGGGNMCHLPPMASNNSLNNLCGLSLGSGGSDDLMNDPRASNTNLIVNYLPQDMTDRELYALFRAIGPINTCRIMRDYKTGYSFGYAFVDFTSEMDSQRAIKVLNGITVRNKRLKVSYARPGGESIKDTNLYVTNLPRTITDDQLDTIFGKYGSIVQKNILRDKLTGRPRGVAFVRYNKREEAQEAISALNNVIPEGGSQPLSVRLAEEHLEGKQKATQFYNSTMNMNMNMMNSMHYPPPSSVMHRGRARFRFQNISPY


Assays:
Conditions in all cases: protein: recombinant; tags: GST; label: fluorescein (RNA labelling mix)
SX35 chimera [1] = target: T1, SX35 chimera; assay: EMSA; Hill n=1; error 95% CI; 20 mM Hepes pH 8.0, 0.1 M KCl, 0.5 mM EDTA, 1 mM DTT, 0.05% NP40, 20% glycerol, 3 µg yeast tRNA; 5 min on ice, then 10 min at room temperature with RNA; 5% native PAGE, 0.25x TBE
SX28 chimera [2] = target: T2, SX28 chimera; assay: as above
SX17 chimera [3] = target: T3, SX17 chimera; assay: as above
SX64 chimera [4] = target: T4, SX64 chimera; assay: as above
SX35 chimera [5] = target: T1, SX35 chimera; assay: EMSA; apparent Kd, Hill fit; error 95% CI; 20 mM Hepes pH 8.0, 0.1 M KCl, 0.5 mM EDTA, 1 mM DTT, 0.05% NP40, 20% glycerol, 3 µg yeast tRNA; 5 min on ice, then 10 min at room temperature with RNA; 5% native PAGE, 0.25x TBE
SX28 chimera [6] = target: T2, SX28 chimera; assay: as above
SX17 chimera [7] = target: T3, SX17 chimera; assay: as above
SX64 chimera [8] = target: T4, SX64 chimera; assay: as above

Row | Binder | Kd (SX35 chimera [1]) | Kd (SX28 chimera [2]) | Kd (SX17 chimera [3]) | Kd (SX64 chimera [4]) | Kd (SX35 chimera [5]) | Kd (SX28 chimera [6]) | Kd (SX17 chimera [7]) | Kd (SX64 chimera [8])
1 | CAUGAUUAUUUUUUUUUAUUUUUUUUCGGUGA (ssRNA) [double poly(U) SXL site] | 0.9 ± 0.4 µM | 3.8 ± 0.5 µM | 2.4 ± 0.5 µM | 2.3 ± 0.4 µM | – | – | – | –
2 | ACAUAUUUUUUUUCACAGC (ssRNA) [single poly(U) SXL site] | – | – | – | – | 230 ± 40 µM | 230 ± 50 µM | 350 ± 50 µM | 180 ± 20 µM
